Results reported in the supplement of paper PMC9112550, “Optimization of the antimicrobial peptide Bac7 by deep mutational scanning” (BMC Biology, 2022).

tested on: Escherichia coli TOP10; test: shrunken log2 fold change of peptide-encoding DNA abundance (4.5 h post-induction vs induction); higher = less antimicrobial activity (less host growth inhibition); conditions: time post-induction: 4.5 h; library: site-saturation at positions 5, 18, 19, 20
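Also: peptides expressed intracellularly from a pBAD plasmid library in pooled LB shake-flask culture, induced with 0.3% L-arabinose, DNA abundance read by NGS, three biological replicates, DESeq2 with apeglm shrinkage.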

Sequence	shrunken log2 fold change
RRIRPRPPRLPRPRPRPEREPRP	0.49
RRIRQRPPRLPRPRPRPMTMPRP	-0.243
RRIRKRPPRLPRPRPRPQIQPRP	0.0528
RRIRCRPPRLPRPRPRPQSNPRP	-0.822
RRIRCRPPRLPRPRPRPAHGPRP	0.23
RRIRFRPPRLPRPRPRPFHGPRP	0.00193
RRIRMRPPRLPRPRPRPSQRPRP	0.158
RRIRFRPPRLPRPRPRPIPSPRP	-0.0572
RRIRCRPPRLPRPRPRPHCVPRP	-0.439
RRIRIRPPRLPRPRPRPGWNPRP	-0.0913
RRIRPRPPRLPRPRPRPAFDPRP	0.388
RRIRMRPPRLPRPRPRPNPDPRP	0.377
RRIRARPPRLPRPRPRPTEEPRP	-0.082
RRIRFRPPRLPRPRPRPREQPRP	0.204
RRIRCRPPRLPRPRPRPNTKPRP	-0.358
RRIRDRPPRLPRPRPRPQPWPRP	0.11
RRIRYRPPRLPRPRPRPSKKPRP	-0.0925
RRIRSRPPRLPRPRPRPYRQPRP	-0.402
RRIRVRPPRLPRPRPRPNDRPRP	-0.0172
RRIRSRPPRLPRPRPRPPSMPRP	0.13

Sequence	shrunken log2 fold change
RRIRDRPPRLPRPRPRPSIRPRP	-0.103
RRIRLRPPRLPRPRPRPTAPPRP	0.645
RRIRHRPPRLPRPRPRPKHWPRP	0.26
RRIRIRPPRLPRPRPRPVKCPRP	0.101
RRIRPRPPRLPRPRPRPRMAPRP	0.278
RRIRMRPPRLPRPRPRPTKMPRP	0.745
RRIRIRPPRLPRPRPRPCHWPRP	-0.0328
RRIRRRPPRLPRPRPRPMNPPRP	0.212
RRIRSRPPRLPRPRPRPKNFPRP	-0.053
RRIRPRPPRLPRPRPRPIRGPRP	0.182
RRIRHRPPRLPRPRPRPTTIPRP	-0.165
RRIRMRPPRLPRPRPRPVMFPRP	0.199
RRIRVRPPRLPRPRPRPYSYPRP	0.128
RRIRPRPPRLPRPRPRPKWSPRP	-0.113
RRIRIRPPRLPRPRPRPCQMPRP	-0.111
RRIRYRPPRLPRPRPRPDRDPRP	-0.109
RRIRGRPPRLPRPRPRPHDNPRP	0.174
RRIRSRPPRLPRPRPRPVEEPRP	0.0884
RRIRARPPRLPRPRPRPLNEPRP	0.137
RRIRVRPPRLPRPRPRPCGMPRP	-0.00417

Sequence	shrunken log2 fold change
RRIRGRPPRLPRPRPRPIVSPRP	0.158
RRIRQRPPRLPRPRPRPLHNPRP	0.00263
RRIRCRPPRLPRPRPRPAEKPRP	-0.0214
RRIRKRPPRLPRPRPRPQQGPRP	0.23
RRIRDRPPRLPRPRPRPLYHPRP	-0.54
RRIRVRPPRLPRPRPRPEFYPRP	-0.251
RRIRPRPPRLPRPRPRPSCHPRP	-0.31
RRIRARPPRLPRPRPRPKIMPRP	-0.0664
RRIRSRPPRLPRPRPRPKVMPRP	0.0101
RRIRERPPRLPRPRPRPDCNPRP	-0.395
RRIRRRPPRLPRPRPRPYGDPRP	-0.251
RRIRFRPPRLPRPRPRPHQKPRP	-0.0745
RRIRMRPPRLPRPRPRPKVSPRP	0.0176
RRIRDRPPRLPRPRPRPTKAPRP	0.000414
RRIRKRPPRLPRPRPRPYLKPRP	-0.525
RRIRLRPPRLPRPRPRPWGSPRP	0.103
RRIRCRPPRLPRPRPRPCADPRP	-0.0836
RRIRFRPPRLPRPRPRPGASPRP	0.109
RRIRERPPRLPRPRPRPLAPPRP	0.101
RRIRARPPRLPRPRPRPCWKPRP	-0.16
